Test results published in patent publication US20140302039A1 (SAMSUNG ELECTRONICS, published 2014).

T1: hAng-1 (human, UniProt Q15389 20-498, limits assumed)
T1 construct: Used in 'the same experiment' as hAng-2 C-His in SPR
T1 sequence (looked up): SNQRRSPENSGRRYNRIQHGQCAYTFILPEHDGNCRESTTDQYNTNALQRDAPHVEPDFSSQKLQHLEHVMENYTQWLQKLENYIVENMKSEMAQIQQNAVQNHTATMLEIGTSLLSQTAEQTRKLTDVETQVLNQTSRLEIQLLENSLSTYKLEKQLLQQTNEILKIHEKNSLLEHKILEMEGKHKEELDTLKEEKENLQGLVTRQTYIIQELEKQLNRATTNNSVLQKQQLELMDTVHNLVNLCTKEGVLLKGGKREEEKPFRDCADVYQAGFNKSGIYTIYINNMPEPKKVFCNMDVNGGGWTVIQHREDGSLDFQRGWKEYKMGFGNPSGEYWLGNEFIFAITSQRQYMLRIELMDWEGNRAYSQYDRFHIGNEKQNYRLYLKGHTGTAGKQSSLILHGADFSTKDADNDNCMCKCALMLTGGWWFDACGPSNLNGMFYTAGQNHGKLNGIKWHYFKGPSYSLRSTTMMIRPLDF

B1: SAIT-ANG-2-AB-m1B6 (antibody, V domains shown)
VH: QIQLVQSGPELKKPGETVKISCKASGYTFTNYGMNWVKQAPGKGLKWMGWINTYTGEPTYADDFKGRFAFSLETSASTAYLQINNLKNEDTATYFCARDHDGYLMDYWGQGTSVTVSS
VL: DIQMTQTTSSLSASLGDRVTISCSTSQGISNYLNWYQQKPDGTVKLLIFYTSSLHSGVPSRFSGSGSGTDYSLTISNLEPEDIATYYCQQYSKLPYTFGGGTKLEIK
notes: Mouse hybridoma monoclonal antibody purified on protein G; also called SAIT-ANG-m2-AB-1B6
B2: SAIT-ANG-2-AB-m8D3 (antibody, V domains shown)
VH: EVQLQQSGPELVKPGDSVKMSCKASGYTFTDYYMKWVRQSHGKSLQWVGEINPKNGDTFYNQIFKGKATLTVDKSSSTAYMQLTSLTSEDSAVYYCTRENDYDVGFFDYWGQGTSVTVSS
VL: TIVMTQTPKFLLVSAGDRITITCKASQSVSNDVAWYQQKPGQSPKLLIYYASNRYPGVPDRFTGSGYGTDFTFTISTVQAEDLAVYFCQQDYTSPWTFGGGTELEIK
notes: Mouse hybridoma monoclonal antibody purified on protein G
B3: SAIT-ANG-2-AB-m3E2 (antibody, V domains shown)
VH: EVQLQQSGAELVKPGASVKLSCTASGFNIKDPYIHWVKQRPEQGLEWIGRIDPANGNTKYDPKFQGKATITADTSSNTAYLQLSSLTSEDTAVYYCVRRWDGGGFDYWGQGTSVTVSS
VL: DIQMTQTTSSLSASLGDRVTISCRASQDISNYLNWYQQKPDGTVKLLIYYTSRLHSGVPSRFSGSGSGTDYSLTITNLEQEDIATYFCQQGNTLPWTFGGGTKLEIK
notes: as for B2

biological target: T1, hAng-1; experiment: SPR, BIAcore T100, antigen captured on chip, antibody from 100 nM in two-fold dilutions
Procedure: An anti-His antibody was immobilized to the degree of 8,000 response units (RU) on a CM5 sensor chip (GE Healthcare) using a pH 5.0 acetate solution and an amine coupling kit (GE Healthcare). Recombinant hAng-2 protein (C-His, R&D Systems) was flowed into this immobilized antibody at a concentration of 6 μg/ml to capture the antibody at 100˜200 RU. In this regard, the antibodies obtained in Reference Example 2.2.2 were serially diluted by half each time starting from 100 nM before application. […] Kd values were calculated from the measurements. The same experiment was conducted with hAng-1.

Binder	binding result
B1	no binding
B2	no binding
B3	no binding
